# Substitutions are numbered along the chain they refer to.
# T1: hiR2-FL-D535-T7 (deletion of D535) (human, UniProt Q6PJF5 1-856)
# T1 construct: single amino acid deletion
# T1 sequence: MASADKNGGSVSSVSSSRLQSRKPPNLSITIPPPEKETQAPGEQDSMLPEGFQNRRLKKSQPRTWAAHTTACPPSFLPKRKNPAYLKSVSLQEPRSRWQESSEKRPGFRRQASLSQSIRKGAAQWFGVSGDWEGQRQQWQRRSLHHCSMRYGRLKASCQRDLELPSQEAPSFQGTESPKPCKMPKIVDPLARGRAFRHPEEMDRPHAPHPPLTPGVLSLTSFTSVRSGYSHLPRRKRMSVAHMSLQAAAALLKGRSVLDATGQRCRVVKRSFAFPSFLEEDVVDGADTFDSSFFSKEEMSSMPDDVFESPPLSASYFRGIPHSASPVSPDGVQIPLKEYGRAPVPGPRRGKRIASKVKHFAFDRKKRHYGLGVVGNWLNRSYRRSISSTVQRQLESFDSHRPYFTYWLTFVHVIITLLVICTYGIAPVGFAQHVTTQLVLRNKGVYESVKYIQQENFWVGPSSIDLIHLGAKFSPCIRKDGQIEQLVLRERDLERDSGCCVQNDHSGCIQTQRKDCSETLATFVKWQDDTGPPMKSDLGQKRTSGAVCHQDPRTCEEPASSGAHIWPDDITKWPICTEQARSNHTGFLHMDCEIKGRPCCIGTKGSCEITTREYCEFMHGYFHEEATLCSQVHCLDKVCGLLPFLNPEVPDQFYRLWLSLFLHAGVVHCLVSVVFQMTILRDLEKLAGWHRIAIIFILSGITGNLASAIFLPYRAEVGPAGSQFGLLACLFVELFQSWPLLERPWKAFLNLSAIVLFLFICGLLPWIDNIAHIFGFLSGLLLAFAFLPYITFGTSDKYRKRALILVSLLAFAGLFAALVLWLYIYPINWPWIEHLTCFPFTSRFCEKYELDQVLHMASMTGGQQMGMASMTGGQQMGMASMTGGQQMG
# B1: antibody 16 (antibody, V domains shown)
# VH: QVTLKESGPGILQPSQTLSLTCSFSGFSLSTFALGVGWIRQPSGRGLEWLAHIWWDDDKYYNPALKSRLTISKDTSKNHVFLKIANVDTADTATYYCARITTYYYGMDYWGQGTSVTVSS
# VL: DIVLSQSPATLSVTPGDSVSLFCRASQSIGNHLHWYQQESHASPRLLIKYASQSISGIPSRFSGSGSGTDFTLSINSVETEDFGMYFCQQSYNWPLTFGAGTKLELK
# notes: mouse IgG, kappa light chain; also called clone #16; purified antibody 16
# B2: antibody 3 (antibody, V domains shown)
# VH: QVTLKESGPGILQPSQTLSLTCSFSGFSLTTFAMGIGWVRQPSGKGLEWLAHIWWDGEKYNNPVLKSRLTISKDTSKNQVFLRIANVDTPDTATYYCARISSIYYIIDNWGQGTSVTVSS
# VL: B1 VL with S5T, D17H, F22S, G30S, H32N, Q38K, E39K, A42E, A51V
# notes: mouse IgG, kappa light chain; also called clone #3; purified antibody 3
# B3: antibody 5 (antibody, V domains shown)
# VH: QVTLKESGPGILQPSQTLSLTCSFSGFSLSTFGMGVGWIRQPSGKGLEWLAHIWWDDEKYYNSALKSRLTISKATSKNQAFLKIANVDTADTATYYCARISNYGSNYWYFNVWGTGTTVTVSS
# VL: QVVLTQSPALMSASPGEKVTMTCSAGSSVSCMYWYQQKPGSSPRVLIYDTSNLASGVPARFTGSGSGTSYSLTISRMEAEDAASYYCQQWNSYPLTFGAGTKLELK
# notes: mouse IgG, kappa light chain; also called clone #5; purified antibody 5
# B4: antibody 44 (antibody, V domains shown)
# VH: B3 VH with G44E, E58D, S63P, A74D, A80I, A85T, D91E, A98S, S101G, N111D
# VL: QIVLTQSPAVMSASPGEKVTMTCTASSSVYYMYWYQQTPGSSPRLLIYDTSNLASGVPVRFSGSGSGTSYSLTISRMEAEDAATYYCQQWNTYPLTFGAGTKLELK
# notes: mouse IgG, kappa light chain; also called clone #44; purified antibody 44
# B5: antibody 42 (antibody, V domains shown)
# VH: B3 VH with F24L, M34R, S63P, A74D, A80V, K83R, S101Q, N111D
# VL: LIVLTQSPAIMSASPGEKVTMTCGATSRISYMFWYQQKPGSSPRVLIYDTSNLASGVPVRFSGSGSGTSYSLTISRVEAEDVATYYCQQWNSYPLTFGAGTKLELK
# notes: mouse IgG, kappa light chain; also called clone #42; purified antibody 42
# B6: antibody 43 (antibody, V domains shown)
# VH: B3 VH with T3A, P42S, H52N, E58D, S63P, A74D, T75A, S101G, N111D
# VL: B5 VL with L1Q, K18R, G24S, T26N, F33Y, V45L, V77M, V82A, Y86N, N91S
# notes: mouse IgG, kappa light chain; also called clone #43; purified antibody 43
# B7: antibody 22 (antibody, V domains shown)
# VH: B3 VH with A80V
# VL: B3 VL with C31Y, S84T
# notes: mouse IgG, kappa light chain; also called clone #22; purified antibody 22
# B8: antibody 34 (antibody, V domains shown)
# VH: QVTLKESGPGILQPSQTLSLTCSFSGFSLSTFSLGVGWIRQSSGKGLEWLAHIWWDDEKYYNPALKSRLTISKDTSKNQVFLKIANVDAADTATYYCARAYYSKSYYALDYWGQGTSVTVSS
# VL: DIQMTQSPSSLSASLGERVSLTCRASQEISGYLSWLQQKPDGTIKRLIYAASTLDSGVPKRFSGSRSGSDYSLAISSLESEDFADYYCLQYANFPFTFGSGTKLEIK
# notes: mouse IgG, kappa light chain; also called clone #34; purified antibody 34
# Biological target: T1, hiR2-FL-D535-T7 (deletion of D535)
# Assay: FACS, MEF-DKO cells, 3 µg/ml
# Text: In brief, immortalized MEF-DKO-hiR2-FL-G498A-T7, MEF-DKO-hiR2-FL-Q502R-T7, MEF-DKO-hiR2-FL-I509V-T7, MEF-DKO-hiR2-FL-Q512S-T7, MEF-DKO-hiR2-FL-R513E-T7, MEF-DKO-hiR2-FL-K514E-T7, MEF-DKO-hiR2-FL-D515E-T7, MEF-DKO-hiR2-FL-E518S-T7, MEF-DKO-hiR2-FL-T522V-T7, MEF-DKO-hiR2-FL-F523W-T7, MEF-DKO-hiR2-FL-Q527P-T7, MEF-DKO-hiR2-FL-D528I-T7, MEF-DKO-hiR2-FL-D529H-T7, MEF-DKO-hiR2-FL-T530P-T7, MEF-DKO-hiR2-FL-G531S-T7, MEF-DKO-hiR2-FL-P532A-T7, MEF-DKO-hiR2-FL-M534-T7, MEF-DKO-hiR2-FL-D535-T7, MEF-DKO-hiR2-FL-K536-T7, MEF-DKO-hiR2-FL-S537E-T7, MEF-DKO-hiR2-FL-D538L-T7, MEF-DKO-hiR2-FL-L539A-T7, MEF-DKO-hiR2-FL-Q541H-T7, MEF-DKO-hiR2-FL-T544Q-T7, MEF-DKO-hiR2-FL-S545F-T7, MEF-DKO-hiR2-FL-A547S-T7, MEF-DKO-hiR2-FL-T555V-T7, MEF-DKO-hiR2-FL-E557D-T7, MEF-DKO-hiR2-FL-A560S-T7 and MEF-DKO-hiR2-FL-S562E-T7 cells were harvested with 10 mM EDTA in PBS, washed and resuspended in FACS buffer (PBS, 3% FBS, 0.05% sodium azide), and seeded in Nunc U-bottom 96-well plates (Thermo Fisher Scientific, USA) at approximately 3×10⁵ cells per well. To pellet cells and remove supernatants, the plates were centrifuged at 1,500 rpm and 4° C. for 3 minutes. For primary staining, cells were resuspended in 100 μl per well of either FACS buffer alone (controls) or the purified antibodies 3, 5, 16, 22, 34, 42, 43, 44, 48, and 50 of the invention at 3 μg/ml in FACS buffer and incubated on ice for 1 hour. Afterwards, plates were centrifuged at 1,500 rpm and 4° C. for 3 minutes and washed twice with 200 μl per well of FACS buffer. For secondary staining, cells were spun down and resuspended in 100 μl per well of PE-conjugated goat anti-mouse IgG F(ab′)2 detection fragment (Dianova, Germany) diluted 1:100 in FACS buffer. Protected from light, the cell suspensions were incubated on ice for 1 hour. Plates were then centrifuged at 1,500 rpm and 4° C. for 3 minutes and washed three times with 200 μl per well of FACS buffer. Finally, cells were resuspended in 150 μl per well of FACS buffer and analyzed using a BD Accuri™ C6 Plus flow cytometer (Becton Dickinson, Germany).
row,Binder,loss of binding vs wild type
1,B1,≥ 95%
2,B2,≥ 95%
3,B3,≥ 95%
4,B4,≥ 95%
5,B5,≥ 95%
6,B6,≥ 95%
7,B7,≥ 95%
8,B8,≥ 95%
